Test results from US12528864 (GlaxoSmithKline, dated 2026).

Legend:
recombinant human CD96v2 = molecular target: T1, recombinant human CD96v2 (human, UniProt P40200-2 22-503, limits assumed, biotinylated (site not stated)); test: MSD solution equilibrium titration (MSD-SET), 25 C
T1 construct: Soluble recombinant protein used in MSD-SET; also called Biotinylated human CD96 protein
T1 sequence (looked up): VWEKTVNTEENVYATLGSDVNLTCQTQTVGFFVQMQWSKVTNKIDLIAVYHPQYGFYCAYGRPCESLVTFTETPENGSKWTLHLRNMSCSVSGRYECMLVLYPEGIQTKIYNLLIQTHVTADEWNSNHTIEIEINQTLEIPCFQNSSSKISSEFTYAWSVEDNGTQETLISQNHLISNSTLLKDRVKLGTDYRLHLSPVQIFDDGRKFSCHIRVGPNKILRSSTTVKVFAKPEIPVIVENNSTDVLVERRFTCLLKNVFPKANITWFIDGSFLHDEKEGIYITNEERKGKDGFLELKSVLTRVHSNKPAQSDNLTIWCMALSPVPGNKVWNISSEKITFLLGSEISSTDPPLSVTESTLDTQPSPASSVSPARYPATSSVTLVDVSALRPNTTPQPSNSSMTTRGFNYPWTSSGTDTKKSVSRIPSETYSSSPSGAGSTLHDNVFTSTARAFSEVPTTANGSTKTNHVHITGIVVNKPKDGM

[1] = molecular target: T2, recombinant cynomolgus monkey CD96v2 (cynomolgus monkey, UniProt A0A2K5TWV6 22-487, biotinylated (site not stated)); test: MSD solution equilibrium titration (MSD-SET), 25 C
T2 construct: Soluble recombinant protein used in MSD-SET; also called cynomolgus monkey biotinylated CD96 protein
T2 sequence: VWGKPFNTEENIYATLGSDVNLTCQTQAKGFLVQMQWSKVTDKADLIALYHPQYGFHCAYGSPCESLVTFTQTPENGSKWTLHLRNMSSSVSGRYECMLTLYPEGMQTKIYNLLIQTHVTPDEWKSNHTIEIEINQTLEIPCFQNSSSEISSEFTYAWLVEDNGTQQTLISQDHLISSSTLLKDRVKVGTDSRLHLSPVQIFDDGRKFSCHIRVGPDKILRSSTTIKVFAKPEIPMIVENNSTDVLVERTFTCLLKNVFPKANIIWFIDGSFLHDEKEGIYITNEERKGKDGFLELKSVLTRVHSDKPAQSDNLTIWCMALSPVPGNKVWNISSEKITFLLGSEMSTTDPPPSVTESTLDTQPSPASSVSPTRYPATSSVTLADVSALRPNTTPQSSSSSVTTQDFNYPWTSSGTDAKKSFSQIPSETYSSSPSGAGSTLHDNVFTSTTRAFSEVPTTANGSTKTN

[2] = molecular target: T3, recombinant murine CD96v2 (mouse, UniProt Q3U0X8 22-536, limits assumed); test: MSD solution equilibrium titration (MSD-SET), 25 C
T3 construct: Soluble recombinant protein used in MSD-SET; also called mouse CD96
T3 sequence (looked up): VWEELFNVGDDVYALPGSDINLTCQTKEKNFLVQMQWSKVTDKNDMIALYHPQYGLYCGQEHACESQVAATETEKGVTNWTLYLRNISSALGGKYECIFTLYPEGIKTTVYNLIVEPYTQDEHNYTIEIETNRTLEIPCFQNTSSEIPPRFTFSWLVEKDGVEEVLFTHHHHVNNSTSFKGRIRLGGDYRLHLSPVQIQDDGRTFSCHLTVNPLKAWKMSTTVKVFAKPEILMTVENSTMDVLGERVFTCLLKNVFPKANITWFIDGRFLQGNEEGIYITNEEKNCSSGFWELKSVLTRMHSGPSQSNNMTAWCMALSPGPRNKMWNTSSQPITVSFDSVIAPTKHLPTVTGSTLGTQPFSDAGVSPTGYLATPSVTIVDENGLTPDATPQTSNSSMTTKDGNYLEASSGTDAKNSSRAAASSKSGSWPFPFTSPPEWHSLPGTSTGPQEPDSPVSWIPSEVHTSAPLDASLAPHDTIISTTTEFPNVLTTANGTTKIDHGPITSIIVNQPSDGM

[3] = molecular target: T4, human CD96v2 expressed on cells (CHO cells; transiently transfected HEK cells) (human, UniProt P40200-2 22-569); test: flow cytometry on transiently transfected HEK cells; geometric mean, n = 3
T4 construct: whole, on cells; the cell is named under assay; also called CHO-huCD96; hCD96v2
T4 sequence (looked up): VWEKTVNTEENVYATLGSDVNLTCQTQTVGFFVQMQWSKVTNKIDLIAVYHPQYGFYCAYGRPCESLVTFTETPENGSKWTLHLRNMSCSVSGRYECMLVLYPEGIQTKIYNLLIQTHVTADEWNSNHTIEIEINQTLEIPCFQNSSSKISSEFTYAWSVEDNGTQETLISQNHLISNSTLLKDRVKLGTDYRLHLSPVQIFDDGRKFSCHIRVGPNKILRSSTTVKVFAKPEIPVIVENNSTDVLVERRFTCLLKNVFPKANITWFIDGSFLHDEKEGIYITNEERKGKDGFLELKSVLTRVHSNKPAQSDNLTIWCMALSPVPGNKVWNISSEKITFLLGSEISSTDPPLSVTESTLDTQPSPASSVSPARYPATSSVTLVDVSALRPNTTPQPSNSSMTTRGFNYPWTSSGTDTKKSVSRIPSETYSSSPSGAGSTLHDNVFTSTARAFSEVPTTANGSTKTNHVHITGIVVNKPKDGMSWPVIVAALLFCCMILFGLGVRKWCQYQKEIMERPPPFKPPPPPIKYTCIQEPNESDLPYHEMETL

[4] = molecular target: T5, cynomolgus monkey CD96v1 on transiently transfected HEK cells (cynomolgus monkey); test: as above
T5 construct: whole, on cells; also called Cyno CD96v1

B1: 42Y073-86F08-66 (antibody)
heavy: not shown
light: DIQLTQSPSSLSASVGDRVTITCRASQSISSYLNWYQQKPGKAPKLLIYAASSLQSGVPSRFSGSGSGTDFTLTISSLQPEDFATYYCQQVLHTITFGGGTKVEIKRTVAAPSVFIFPPSDEQLKSGTASVVCLLNNFYPREAKVQWKVDNALQSGNSQESVTEQDSKDSTYSLSSTLTLSKADYEKHKVYACEVTHQGLSSPVTKSFNRGEC
notes: also called GSK 6097608; GSK6097608
Recombinant human CD96v2
  Kd: 0.02 nM
[1]
  Kd: 0.278 nM
[2]
  Kd: 0.479 nM
[3]
  EC50: 6.44 nM
[4]
  EC50: 9.17 nM
